One assay addresses HLA-B*27:05. The assay is described as follows: IEDB peptide-MHC binding, purified MHC/competitive/fluorescence; ≥ and ≤ were set here for values at or beyond the usual limits of such assays. Conditions: source organism: hepatitis C virus genotype 1a.
Another assay deals with HLA-B*46:01. The assay is described as follows: IEDB peptide-MHC binding, cellular MHC/competitive/fluorescence; ≥ and ≤ were set here for values at or beyond the usual limits of such assays. Conditions: source organism: Human herpesvirus 4 strain B95-8.
A further assay has as its target HLA-B*27:04. The assay is described as above. Conditions: source organism: Human herpesvirus 4 strain B95-8.
The target of a further assay is HLA-A*29:02. The assay is described as follows: IEDB peptide-MHC binding, purified MHC/competitive/radioactivity; ≥ and ≤ were set here for values at or beyond the usual limits of such assays. Conditions: source organism: Human papillomavirus 16.
A further assay concerns the target HLA-B*14:02. Kind of assay: IEDB peptide-MHC binding, purified MHC/direct/fluorescence; filed as Kd, often an IC50 or EC50 that approximates it; ≥ and ≤ were set here for values at or beyond the usual limits of such assays. Conditions: source organism: Homo sapiens.
For a further assay, the target named is HLA-B*35:01. The assay is described as follows: IEDB peptide-MHC binding, cellular MHC/competitive/fluorescence; ≥ and ≤ were set here for values at or beyond the usual limits of such assays. Conditions: source organism: Mycobacterium tuberculosis H37Rv.

One may read the IC50 as the point on the concentration scale where inhibition reaches its midpoint. Take GKAVICGKY: the IC50 in the assay with HLA-B*27:05 is 4.67 µM.
HAMHISTGL came in with an IC50 with HLA-B*46:01 of 5 µM.
Sequence SRRTSRPNR registered an IC50 in the assay with HLA-B*27:04 of 10 µM.
In the case of IFVYIPLFL, the IC50 with HLA-A*29:02 came out at 0.444 µM.
Broadly, the Kd is the constant that tells how readily two partners part at equilibrium. A high value points to weaker binding. NEVLHQEL: in the assay with HLA-B*14:02, the Kd was 0.294 µM.
MPVGGQSSFY had an IC50 in the assay with HLA-B*35:01 of 0.3 µM.

For the origin of these results see the Immune Epitope Database (IEDB).
